Measured values as given in the supplement of paper PMC10567573.
± gives the standard deviation.

Assay: protein stability index of a GFP-peptide fusion (GPS, HEK-293T) (PSI 1-6); higher = more stable
[1] = treatment: DMSO, c terminus: a fixed tail appended
[2] = treatment: MLN4924 1 uM, 8 h, c terminus: a fixed tail appended
[3] = treatment: DMSO, c terminus: native
[4] = treatment: MLN4924 1 uM, 8 h, c terminus: native
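Also: 24-mer peptide tiles fused after GFP, lentivirally expressed, FACS-sorted into six equal bins by GFP/DsRed ratio, decoded by Illumina sequencing, PSI is the read-weighted mean bin number.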

| Sequence | protein stability index [1] | protein stability index [2] | protein stability index [3] | protein stability index [4] |
| --- | --- | --- | --- | --- |
| GLDPEPLPLMDLCRRSIRSALGRQ [SPSB4] | 3.79 ± 0.23 | 3.75 ± 0.18 |  |  |
| GLFAVGEHTGEVRTARALLDRDAL [PCDHGA10] | 3.84 ± 0.57 | 3.81 ± 0.29 |  |  |
| GLGNIWRFPYLCQKNGGGAYLVPY [SLC6A17] | 2.44 ± 0.43 | 2.54 ± 0.49 |  |  |
| GLVKKYMNSLLIGELSPEQPSFEP [FADS1] | 2.25 ± 0.089 | 2.34 ± 0.45 |  |  |
| GMEGDWSWVDDTPFNKVQSARFWI [CD207] | 1.82 ± 0.3 | 2.25 ± 0.32 |  |  |
| GMGLTGTMGMGMPNIAMTSGTVQP [CLINT1] | 3.84 ± 0.17 | 3.69 ± 0.13 |  |  |
| GPWSCENFNPLLVAGGVAVAAIAL [CEND1] | 3.34 ± 0.4 | 2.58 ± 0.9 |  |  |
| GRKPERRRLKTTRLKEYTIKSHSS [DAPK3] | 3.92 ± 0.17 | 4.06 ± 0.29 |  |  |
| GRLGRWLRSTRFSGSLDRLRETRV [PCDHGC5] | 3.34 ± 0.18 | 3.3 ± 0.36 |  |  |
| GRLYVHPDSPATGAHWMRQLVSFQ [TBX5] | 2.32 ± 0.26 | 2.34 ± 0.2 |  |  |
| GRTCITDLQLTVGGAQASGTLIGV [MFSD9] | 2.33 ± 0.31 | 2.04 ± 0.3 |  |  |
| GSAEKQAGEAHMAADGETNGSCEN [EHMT1] | 5.49 ± 0.37 | 5.6 ± 0.2 |  |  |
| GSENRNHRLLNMARNNNDPGRLTE [RNF180] | 4.08 ± 0.22 | 4.26 ± 0.24 |  |  |
| GSGADRIYDLNIPAFVKFAYVAER [NCK2] | 2.35 ± 0.29 | 2.36 ± 0.13 |  |  |
| GSLDNAHHVPGGGNVKIDSQKLNF [MAP2] | 4.27 ± 0.18 | 4.43 ± 0.32 |  |  |
| GSLGSRAEPAPRAREGGGCGRSEV [SMAD6] | 4.84 ± 0.15 | 4.92 ± 0.11 |  |  |
| GSNGYILNKPALQAQPLRTTSTLA [EHMT1] | 3.59 ± 0.36 | 3.44 ± 0.17 |  |  |
| GSTLIFYKYCDHENAAFKDVALVL [TOR1AIP2] | 2.43 ± 0.59 | 2.58 ± 0.73 |  |  |
| GSYGGFASAPTTPCQKSPNGVRVF [TRIM9] | 3.17 ± 0.18 | 3.25 ± 0.24 |  |  |
| GTMGMAPLGNTPMMNQSMMGMNMN [CLINT1] | 3.39 ± 0.45 | 3.52 ± 0.21 |  |  |
| GTPKDHDSPENGADSFESSDSLLQ [ETS2] | 5.46 ± 0.23 | 5.47 ± 0.23 |  |  |
| GVEEIKGHPFFEGVDWEHIRERPA [STK38L] | 3.97 ± 0.8 | 4.32 ± 0.37 |  |  |

| Sequence | protein stability index [1] | protein stability index [2] | protein stability index [3] | protein stability index [4] |
| --- | --- | --- | --- | --- |
| GVEPAPWAQLEAPARLLLQALQAG [FANCE] | 2.89 ± 0.27 | 2.92 ± 0.38 |  |  |
| GWVSGQLRYSVVEESEPGTLVGNV [PCDHGC5] | 3.03 ± 0.24 | 3.07 ± 0.22 |  |  |
| HARARDQGQPAMEGHCVIQVDVGD [PCDHGC5] | 4.61 ± 0.068 | 4.58 ± 0.23 |  |  |
| HEEEVSVLRCQLGDRLNVEVDAAP [KRT36] | 5.17 ± 0.26 | 4.95 ± 0.32 |  |  |
| HFSSIPDAFWWAVVSMTTVGYGDM [KCNA1] | 3.56 ± 0.34 | 3.12 ± 0.29 |  |  |
| HHLGSGSGAGGTGGPAGQAGRGGA [MYOZ1] | 4.9 ± 0.35 | 5.01 ± 0.33 |  |  |
| HKRISAFRALQHSYLHKDEGNPE [CDK4] |  |  | 4.15 ± 0.26 | 4.04 ± 0.47 |
| HKRPHVDFFLEVVSQWYELVVFTA [CTDNEP1] | 3.06 ± 0.76 | 2.77 ± 1.2 |  |  |
| HLGKEQSRRDDLEALGHMFMYFLR [CSNK1G1] | 2.61 ± 0.24 | 2.25 ± 0.26 |  |  |
| HLIRHQITHTREEQPHGRSRRREQ [ZNF8] | 4.57 ± 0.13 | 4.75 ± 0.051 |  |  |
| HMEALEIAANLENKATNTDHLTTV [C8orf76] | 4.76 ± 0.18 | 4.78 ± 0.23 |  |  |
| HMSLEKDIAAMTNSLFIDRQKCMA [TEKT4] | 3 ± 0.18 | 3.02 ± 0.23 |  |  |
| HPEVKCVGSVALTALVTVSSEEFE [C8orf76] | 3.27 ± 0.19 | 3.31 ± 0.52 |  |  |
| HQPPQAGAGDVVLLQRELAQEDSL [LYSMD4] | 5.09 ± 0.13 | 5.04 ± 0.15 |  |  |
| HQRSSSESYTQSFQSRKPFFSWW [PI4K2A] |  |  | 3.41 ± 0.27 | 3.7 ± 0.3 |
| HRKRGSQPPDMASALTDRTSRAPS [RSPH3] | 4.89 ± 0.17 | 4.95 ± 0.18 |  |  |
| HSIALSTFASLIGPFGGFFASGFK [CDS1] | 2.57 ± 0.61 | 2.64 ± 0.69 |  |  |
| HVAPLLAAAGLHASPMSADRVVAF [NR2F2] | 2.27 ± 0.43 | 2.24 ± 0.27 |  |  |
| HWALRVTPGLGVVAVLLLFLVVRE [SPNS1] | 2.83 ± 0.47 | 2.79 ± 0.59 |  |  |
| HWNGRHKPWDFPSVHNDLWESWFV [GLT8D2] | 2.28 ± 0.58 | 2.54 ± 0.52 |  |  |
| IALVENIPEGLNYSENAPFHLSLF [PLD5] | 2.2 ± 0.83 | 2.25 ± 0.24 |  |  |
| IDEVLLHQDVDLVCINLPPPLTRQ [GFOD1] | 2.83 ± 0.38 | 2.98 ± 0.43 |  |  |

| Sequence | protein stability index [1] | protein stability index [2] | protein stability index [3] | protein stability index [4] |
| --- | --- | --- | --- | --- |
| IDNARLAADDFRLKYENELALRQG [KRT15] | 4.24 ± 0.28 | 4.28 ± 0.45 |  |  |
| IDYKTTTILLDGRRVRLELWDTSG [RAB40C] | 2.25 ± 0.61 | 2.21 ± 0.26 |  |  |
| IENYKKQTRNGLGKDHEILRRRIE [FUT8] | 3.67 ± 0.24 | 3.87 ± 0.24 |  |  |
| IFAWNKWIDIKQFVWYTPPTFMIA [STEAP1] | 2.97 ± 1.2 | 2.95 ± 0.64 |  |  |
| IFCLHGGLSPSIDTLDHIRALDRL [PPP2CA] | 2.29 ± 0.59 | 2.21 ± 0.17 |  |  |
| IFGASSVDFSLSGRLLFAGYNDYT [GNB5] | 2.6 ± 0.63 | 2.12 ± 0.49 |  |  |
| IFHSRTSLQKLSTKLSAQSAQYSQ [FCHSD1] | 2.91 ± 0.17 | 2.98 ± 0.34 |  |  |
| IFTKKLPHPDLPAEEKEQLLHNDE [USP39] | 5 ± 0.16 | 5.03 ± 0.1 |  |  |
| IGPPSAAAIFKIYLSCLEELMKCQ [TRIP13] | 2.16 ± 0.31 | 2.21 ± 0.34 |  |  |
| IGSCVTNPCGPRSRCGPCNTFGY [KRT33B] |  |  | 2.9 ± 0.28 | 2.97 ± 0.34 |
| IHQETVSKNGNGLKNTPRFKRRRV [PCMTD2] | 4.41 ± 0.27 | 4.63 ± 0.27 |  |  |
| IINDTYSEVKEELAGQKDELQLSD [PKD2L1] | 5.35 ± 0.23 | 5.28 ± 0.22 |  |  |
| IKEQLIQEGLLDRCVSFQARFAEK [HDAC6] | 2.81 ± 0.19 | 2.73 ± 0.36 |  |  |
| IKRLVGSDQETLRIHERLVAGSLA [SLC25A25] | 2.74 ± 0.31 | 2.62 ± 0.18 |  |  |
| ILPKELQGWVREHCPESGEEAVIL [ZSCAN9] | 2.74 ± 0.35 | 2.95 ± 0.47 |  |  |
| INPFTPDSLLLHSSGQCRRRKRTY [WEE1] | 3.62 ± 0.4 | 3.83 ± 0.41 |  |  |
| IQNSDNDLPVVQGSSSFSLKGYPS [TRIM29] | 3.91 ± 0.29 | 4.07 ± 0.2 |  |  |
| IQSWDINSRRNINYRSFEPILRLL [ZER1] | 2.31 ± 0.099 | 2.41 ± 0.21 |  |  |
| IRKTVKRLRKHQHVGDFARDLAAR [ELOA2] | 3.6 ± 0.23 | 3.69 ± 0.23 |  |  |
| IRMIVRGTLGSCSSSSECLEDSTM [PLK2] | 2.3 ± 0.3 | 2.25 ± 0.12 |  |  |
| IRNSRPLVKKVEEDEAGGRFVAFS [UFD1] | 4.11 ± 0.15 | 4.05 ± 0.21 |  |  |
